The results in this text go back to US20230192902A1 (KENJOCKETY BIOTECHNOLOGY, published 2023).

For this assay, the target named is T1, human ABCG2 (human, UniProt Q9UNQ0 1-655).
T1 construct: also called CD388; BCRP
T1 sequence: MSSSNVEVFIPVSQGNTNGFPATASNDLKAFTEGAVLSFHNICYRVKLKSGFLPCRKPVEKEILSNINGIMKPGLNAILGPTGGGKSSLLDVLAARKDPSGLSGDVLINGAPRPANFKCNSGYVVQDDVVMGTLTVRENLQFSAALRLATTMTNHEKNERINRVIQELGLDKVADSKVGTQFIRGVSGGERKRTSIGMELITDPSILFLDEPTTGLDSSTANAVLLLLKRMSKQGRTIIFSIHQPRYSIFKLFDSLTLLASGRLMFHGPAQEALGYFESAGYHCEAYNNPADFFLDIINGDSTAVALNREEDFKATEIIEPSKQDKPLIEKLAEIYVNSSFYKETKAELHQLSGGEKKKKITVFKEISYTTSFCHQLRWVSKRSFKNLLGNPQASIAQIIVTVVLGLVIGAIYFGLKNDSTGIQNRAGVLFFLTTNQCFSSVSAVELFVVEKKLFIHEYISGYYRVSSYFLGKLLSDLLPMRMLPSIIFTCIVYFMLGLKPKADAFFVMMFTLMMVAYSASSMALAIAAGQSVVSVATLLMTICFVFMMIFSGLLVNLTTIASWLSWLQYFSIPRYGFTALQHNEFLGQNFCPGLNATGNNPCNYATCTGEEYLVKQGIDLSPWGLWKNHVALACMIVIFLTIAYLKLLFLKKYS
Nature of the assay: flow cytometry on 293T cells stably expressing human ABCG2. In general terms: A flow cytometer gives signals particle by particle.

B1: anti-ABCG2 antibody 5D3 (antibody, V domains shown)
VH: QVQLQESGPGLVKPSQSLSLTCTVTGFSITSDYAWNWIRQFPGKKLEWMGYINFDGGTTYNPSLRGRISITRDTSKNQFFLQLRSVTPEDTATYYCATFYGAKGTLDYWGQGTSVTVSS
VL: DIVLTQSPSSFSVSLGDRVTISCKASGYILNRLAWYQQKPGNAPRLLISGATSLETGFPSRFSGTGSGKDYTLSISSLQTEDVGTYYCQQYWSTPWTFGGGTKLEIR
On to B1, for which the binding result is listed as “binds”.
